Results published in patent US20220347267A1, “METHODS TO IMPROVE PATIENT RESPONSE TO IMMUNE CHECKPOINT INHIBITORS AND FUNCTIONAL TESTS TO PREDICT RESPONSE” (Biomarker Strategies, LLC, priority 2019, published 2022).

Key:
H1650 cells [1] = test: PD-L1 immunocytochemistry (ICC), IFNγ modulation; assay type: cell-based; conditions: H1650 (NSCLC); 10 ng/mL human IFNγ, 24h; anti-PD-L1 clone E1L3N
Method: The human NSCLC cell line SKMES1 was grown in Eagle's Minimum Essential Medium (EMEM; ATCC #30-2003) with 10% Fetal Bovine Serum (FBS) and 1% Penicillin and Streptomycin (P/S). The human NSCLC H460, H1299 and H292 and melanoma cell lines MeWo, HMVII, A375 and CHL1 were grown in RPMI1640 medium with 10% FBS and 1% P/S and 1% sodium pyruvate. Cultured cells were harvested using Accutase, and the cell count and viability were determined using trypan blue dye exclusion. Other methods to collect cells, including scraping or other release can be used.
Between 15,000 to 20,000 cells were put into each chamber of 8-chambered ICC slides in 200 uL medium with or without 10 ng/mL human IFNγ. […] IFNγ can be readily replaced by other modulators discussed within. […] Cell lines can be readily switched for other sources of cells, including those isolated from xenografts or clinical samples and can be processed manually or using automated methods (e.g. on SnapPath).
Cells on the chambered slides were stained entirely at RT using the BioGenex RTU Detection System kit components (QD400) unless otherwise indicated. Other detection reagents and methods (e.g. multiplex immunocytochemistry, single of multiplex immunofluorescence, confocal, etc.), including automated staining methods, can be used readily. […] Ki67, T-EGFR or vimentin are provided as examples of positive controls, but others can be readily used. […]

H460 cells = test: PD-L1 confocal microscopy, IFNγ stimulation; assay type: cell-based, human
Description: (§1) To obtain fluorescent specimens, similar procedures are used when compared to flow cytometry. The sample is stained with a primary antibody that is specific for a protein of interest. The primary antibody can be conjugated to a fluorescent molecule or a secondary antibody can be used that attaches to the primary antibody. For intracellular staining of cells, the specimen can be fixed and permeabilized using methanol, formalin or a fixative containing a detergent. Subsequently, the specimen is stained with primary and/or secondary antibodies. For this dataset, samples were stained for PD-L1 in suspension using the same protocol that was used for the flow cytometry dataset. The protocol used was as follows:
(§2) Samples (150 uL per tube) were first incubated with a blocking reagent (BD cat #564219, Lot #9305316) at 1:20 for 15 min at room temperature. Alexa 488-conjugated PD-L1 antibody (CST cat #25048, Lot #2) and Alexa 488-conjugated isotype antibody (CST cat #2975, Lot #16) were added to experimental samples and isotype control samples, respectively, at a manufacturer recommended dilution of 1:50 and the samples were incubated for 30 min at room temperature. Other fluorophore-conjugates and PD-L1 antibodies, including those targeting different epitopes, can be readily used. Additionally, antibodies detecting other biomarkers with appropriate processing (e.g. permeabilization of cells) to predict response (e.g. p-STAT-1) can be used. Following the incubation with an antibody, 1 mL of 2% FBS in PBS was added to each tube to dilute the antibody. Samples were then centrifuged at 200 rcf for 5 min. Supernatant was carefully aspirated and 200 uL of 10% neutral buffered formalin (NBF) was added. Samples were then fixed for 10 min at room temperature. NBF was diluted with 1 mL of 2% FBS in PBS and the samples were centrifuged at 200 rcf for 5 min. Supernatant was aspirated and the cells were resuspended in 0.5 mL of 2% FBS in PBS for flow cytometric analysis. In this experiment, 10% NBF was used to fix cells, but other fixatives, for example, 4% paraformaldehyde can be used. For localization experiments an anti-phosphotyrosine antibody, anti-human/mouse, PE-Vio® 770 (Miltenyi Biotec, Cat #130-109-112) and an anti-PD-L1 antibody, anti-human, Brilliant Violet 650 (BV650; BD Biosciences, Cat #563740) were used. […]
(§3) PD-L1 was assessed in four cell lines (FIG. 35A). PD-L1 was quantified by analyzing FITC-PD-L1 using an 8-bit photomultiplier tube and quantified as raw arbitrary units (FIG. 35B). The PD-L1 expression of the four cell lines was quantified in treated and untreated conditions. […] Thus, PD-L1 expression can be measured qualitatively and quantitatively using confocal microscopy and other fluorescent microscopy techniques.

H1650 cells [2] = test: PD-L1 confocal microscopy, IFNγ stimulation; assay type: cell-based, human
Description: as §1, §2, §3

B1: IFNγ: human IFNγ, modulator (10 ng/ml; Sigma Aldrich) (protein, UniProt P01579 24-161, looked up)
Interferon gamma: QDPYVKEAENLKKYFNAGHSDVADNGTLFLGILKNWKEESDRKIMQSQIVSFYFKLFKNFKDDQSIQKSVETIKEDMNVKFFNSNKKKRDDFEKLTNYSVTDLNVQRKAIHELIQVMAELSPAAKTGKRKRSQMLFRG
- Immunocytochemical Score, PD-L1, IFNγ-Treated Cells (H1650 cells [1]): Negative
- PD-L1 expression by confocal microscopy, untreated and IFNγ treated (H460 cells): adaptive expression
- PD-L1 expression by confocal microscopy, untreated and IFNγ treated (H1650 cells [2]): negative
